The values below come from the RNAGym collection of RNA variant scans (doi:10.1093/molbev/msab373).

The chains are these.
B1: Azoarcus group I ribozyme (parent)
chain: GUGCCUUGCGCCGGGAAACCACGCAAGGGAUGGUGUCAAAUUCGGCGAAACCUAAGCGCCCGCCCGGGCGUAUGGCAACGCCGAGCCAAGCUUCGGCGCCUGCGCCGAUGAAGGUGUAGAGACUAGACGGCACCCACCUAAGGCAAACGCUAUGGUGAAGGCAUAGUCCAGGGAGUGGCGAAAGUCACACAAACCGG

Variants of B1 are the subject of the data set. Briefly: reverse-splicing fitness (ratio to wild type); higher = more active; in vitro selection; Mg2+ level not given. In a few lines: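 An in vitro group I ribozyme library with randomized positions was T7-transcribed and gel-purified. In triplicate, 10 pmol RNA in EPPS pH 7.5 was reacted with 50 pmoles of a 30-nt RNA substrate for 1 h at 37 °C across several added MgCl2 levels (1–48 mM), then stopped with EDTA. Products were reverse transcribed from a substrate-complementary primer, PCR-amplified and sequenced (HiSeq 4000). Fitness is a variant's read proportion after selection over that before, normalised to wild type.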
Consider GUGCCUUGCGCCGGGAAACCACGCAAGGGAUGGUGUCAAAUUCGGCGAAACCUAAGCGCCCGCCCGGGCGUAUGGCAACGCUGAGCCAAGCUUCGGCGCCUGCGCCGAUGCAGGUGUAGCGACUAGACGGCACCCACCUAAGGCUAACGCUAUGGUGAAGGCAUAGUCCAGGGAGAGGCGAAAGUCACACAAACCGG [C82U A111C A120C A145U U176A], for which the reverse-splicing fitness was 0.0118.

As to GUGCCUUGCGCCGGGAAACCACGCAAGGGAUGGUGUCAAAUUCGGCGAAACCUAAGCGCCCGCCCGGGCGUAUGGCAACGCAGAGCCAAGCUUCGGCGCCUGCGCCGAUGGAGGUGUAGUGACUAGACGGCACCCACCUAAGGCAAACGUUAUGGUGAAGGCAUAGUCGAGGGAGGGGCGAAAGUCACACAAACCGG [C82A A111G A120U C150U C169G U176G], the reverse-splicing fitness amounted to 0.00175. GUGCCUUGCGCCGGGAAACCACGCAAGGGAUGGUGUCAAAUUCGGCGAAACCUAAGCGCCCGCCCGGGCGUAUGGCAACGCCGAGCCAAGCUUCGGCGCCUGCGCCGAUGGAGGUGUAGUGACUAGACGGCACCCACCUAAGGCAAACGAUAUGGUGAAGGCAUAGUCAAGGGAGGGGCGAAAGUCACACAAACCGG [A111G A120U C150A C169A U176G]: the reverse-splicing fitness turned out to be 0.00195. Take GUGCCUUGCGCCGGGAAACCACGCAAGGGAUGGUGUCAAAUUCGGCGAAACCUAAGCGCCCGCCCGGGCGUAUGGCAACGCCGAGCCAAGCUUCGGCGCCUGCGCCGAUGGAGGUGUAGGGACUAGACGGCACCCACCUAAGGCCAACGGUAUGGUGAAGGCAUAGUCGAGGGAGUGGCGAAAGUCACACAAACCGG [A111G A120G A145C C150G C169G]: the reverse-splicing fitness amounted to 0.0368. Under GUGCCUUGCGCCGGGAAACCACGCAAGGGAUGGUGUCAAAUUCGGCGAAACCUAAGCGCCCGCCCGGGCGUAUGGCAACGCAGAGCCAAGCUUCGGCGCCUGCGCCGAUGCAGGUGUAGGGACUAGACGGCACCCACCUAAGGCAAACGCUAUGGUGAAGGCAUAGUCAAGGGAGCGGCGAAAGUCACACAAACCGG [C82A A111C A120G C169A U176C] stands 0.0177; under GUGCCUUGCGCCGGGAAACCACGCAAGGGAUGGUGUCAAAUUCGGCGAAACCUAAGCGCCCGCCCGGGCGUAUGGCAACGCAGAGCCAAGCUUCGGCGCCUGCGCCGAUGGAGGUGUAGUGACUAGACGGCACCCACCUAAGGCGAACGUUAUGGUGAAGGCAUAGUCGAGGGAGCGGCGAAAGUCACACAAACCGG [C82A A111G A120U A145G C150U C169G U176C], 0.00643; under GUGCCUUGCGCCGGGAAACCACGCAAGGGAUGGUGUCAAAUUCGGCGAAACCUAAGCGCCCGCCCGGGCGUAUGGCAACGCCGAGCCAAGCUUCGGCGCCUGCGCCGAUGGAGGUGUAGUGACUAGACGGCACCCACCUAAGGCAAACGCUAUGGUGAAGGCAUAGUCCAGGGAGCGGCGAAAGUCACACAAACCGG [A111G A120U U176C], 0.445. Turning to GUGCCUUGCGCCGGGAAACCACGCAAGGGAUGGUGUCAAAUUCGGCGAAACCUAAGCGCCCGCCCGGGCGUAUGGCAACGCAGAGCCAAGCUUCGGCGCCUGCGCCGAUGGAGGUGUAGCGACUAGACGGCACCCACCUAAGGCUAACGGUAUGGUGAAGGCAUAGUCUAGGGAGGGGCGAAAGUCACACAAACCGG [C82A A111G A120C A145U C150G C169U U176G], the reverse-splicing fitness amounted to 0.00564. For the variant GUGCCUUGCGCCGGGAAACCACGCAAGGGAUGGUGUCAAAUUCGGCGAAACCUAAGCGCCCGCCCGGGCGUAUGGCAACGCGGAGCCAAGCUUCGGCGCCUGCGCCGAUGAAGGUGUAGGGACUAGACGGCACCCACCUAAGGCCAACGAUAUGGUGAAGGCAUAGUCAAGGGAGAGGCGAAAGUCACACAAACCGG [C82G A120G A145C C150A C169A U176A], the reverse-splicing fitness is 0.0119. With GUGCCUUGCGCCGGGAAACCACGCAAGGGAUGGUGUCAAAUUCGGCGAAACCUAAGCGCCCGCCCGGGCGUAUGGCAACGCAGAGCCAAGCUUCGGCGCCUGCGCCGAUGUAGGUGUAGUGACUAGACGGCACCCACCUAAGGCGAACGAUAUGGUGAAGGCAUAGUCUAGGGAGUGGCGAAAGUCACACAAACCGG [C82A A111U A120U A145G C150A C169U], the reverse-splicing fitness is 0.00475. As for GUGCCUUGCGCCGGGAAACCACGCAAGGGAUGGUGUCAAAUUCGGCGAAACCUAAGCGCCCGCCCGGGCGUAUGGCAACGCCGAGCCAAGCUUCGGCGCCUGCGCCGAUGUAGGUGUAGAGACUAGACGGCACCCACCUAAGGCCAACGAUAUGGUGAAGGCAUAGUCUAGGGAGUGGCGAAAGUCACACAAACCGG [A111U A145C C150A C169U], the reverse-splicing fitness was found to be 0.0131.

Consider GUGCCUUGCGCCGGGAAACCACGCAAGGGAUGGUGUCAAAUUCGGCGAAACCUAAGCGCCCGCCCGGGCGUAUGGCAACGCCGAGCCAAGCUUCGGCGCCUGCGCCGAUGAAGGUGUAGGGACUAGACGGCACCCACCUAAGGCGAACGUUAUGGUGAAGGCAUAGUCCAGGGAGGGGCGAAAGUCACACAAACCGG [A120G A145G C150U U176G], for which the reverse-splicing fitness came out at 0.0181. Regarding GUGCCUUGCGCCGGGAAACCACGCAAGGGAUGGUGUCAAAUUCGGCGAAACCUAAGCGCCCGCCCGGGCGUAUGGCAACGCCGAGCCAAGCUUCGGCGCCUGCGCCGAUGAAGGUGUAGGGACUAGACGGCACCCACCUAAGGCGAACGCUAUGGUGAAGGCAUAGUCAAGGGAGAGGCGAAAGUCACACAAACCGG [A120G A145G C169A U176A], the reverse-splicing fitness is 0.114.

Regarding GUGCCUUGCGCCGGGAAACCACGCAAGGGAUGGUGUCAAAUUCGGCGAAACCUAAGCGCCCGCCCGGGCGUAUGGCAACGCUGAGCCAAGCUUCGGCGCCUGCGCCGAUGCAGGUGUAGAGACUAGACGGCACCCACCUAAGGCAAACGAUAUGGUGAAGGCAUAGUCAAGGGAGGGGCGAAAGUCACACAAACCGG [C82U A111C C150A C169A U176G], the reverse-splicing fitness stood at 0.00821. With GUGCCUUGCGCCGGGAAACCACGCAAGGGAUGGUGUCAAAUUCGGCGAAACCUAAGCGCCCGCCCGGGCGUAUGGCAACGCAGAGCCAAGCUUCGGCGCCUGCGCCGAUGGAGGUGUAGCGACUAGACGGCACCCACCUAAGGCCAACGGUAUGGUGAAGGCAUAGUCUAGGGAGCGGCGAAAGUCACACAAACCGG [C82A A111G A120C A145C C150G C169U U176C], the reverse-splicing fitness was 0.00986.
